For one molecule, Kd results are on record in publication PMC3621463 (Nature Communications, 2012).

In this experiment the target is HDM2 (used for surface plasmon resonance and the competitive binding assay) (UniProt Q00987 1-491). Description: SPR.
Chain of HDM2 (used for surface plasmon resonance and the competitive binding assay) (Q00987 whole entry): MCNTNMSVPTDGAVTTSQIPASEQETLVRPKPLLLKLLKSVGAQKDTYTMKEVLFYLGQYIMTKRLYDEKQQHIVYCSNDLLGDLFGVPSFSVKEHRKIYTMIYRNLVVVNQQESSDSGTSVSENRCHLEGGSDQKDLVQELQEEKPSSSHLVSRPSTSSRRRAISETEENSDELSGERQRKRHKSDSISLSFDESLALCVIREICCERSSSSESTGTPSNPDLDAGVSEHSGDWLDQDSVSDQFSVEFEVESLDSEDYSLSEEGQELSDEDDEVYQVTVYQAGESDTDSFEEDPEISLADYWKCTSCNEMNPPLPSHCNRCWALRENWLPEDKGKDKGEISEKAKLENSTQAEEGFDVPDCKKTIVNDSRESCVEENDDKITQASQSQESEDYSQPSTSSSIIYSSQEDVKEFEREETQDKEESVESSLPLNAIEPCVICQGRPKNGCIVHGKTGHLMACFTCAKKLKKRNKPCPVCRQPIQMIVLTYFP

B1: p53 peptide (amino acids 22-40) N29,30IsoD (peptide)
peptide: LWKLLPEDDVLSPLPSQAM
modifications: isoaspartate at 29 and 30
As a reminder, the Kd is the concentration at which binding is half-saturated. Low readings indicate a tighter complex, high ones a looser complex. B1 displayed a Kd of 694 µM.
